Numbering of substitutions follows the chain as printed.
T1: human IL-2Rα on Treg cells (CD3+, CD4+, CD25hi, FoxP3+) of human PBMC (human, UniProt P01589 22-272)
T1 sequence (looked up): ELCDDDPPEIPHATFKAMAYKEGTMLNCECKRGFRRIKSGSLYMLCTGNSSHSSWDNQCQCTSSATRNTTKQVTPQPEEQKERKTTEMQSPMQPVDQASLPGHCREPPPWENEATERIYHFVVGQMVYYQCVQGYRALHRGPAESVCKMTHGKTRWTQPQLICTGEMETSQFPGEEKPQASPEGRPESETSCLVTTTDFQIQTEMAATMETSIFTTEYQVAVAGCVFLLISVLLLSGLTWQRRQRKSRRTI

T2: trimeric murine IL-2 receptor (IL-2Rα, IL-2Rβ, and IL-2Rγ) on CTLL-2 cells (murine, UniProt P01590 22-268; P16297 27-539; P34902 23-369)
T2 sequence (looked up) 1: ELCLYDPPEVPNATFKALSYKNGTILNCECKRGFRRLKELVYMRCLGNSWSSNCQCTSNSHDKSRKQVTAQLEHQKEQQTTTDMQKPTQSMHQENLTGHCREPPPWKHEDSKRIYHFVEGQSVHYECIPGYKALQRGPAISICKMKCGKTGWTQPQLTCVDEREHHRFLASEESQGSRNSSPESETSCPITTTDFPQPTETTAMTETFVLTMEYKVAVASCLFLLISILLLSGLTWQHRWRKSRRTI
T2 sequence (looked up) 2: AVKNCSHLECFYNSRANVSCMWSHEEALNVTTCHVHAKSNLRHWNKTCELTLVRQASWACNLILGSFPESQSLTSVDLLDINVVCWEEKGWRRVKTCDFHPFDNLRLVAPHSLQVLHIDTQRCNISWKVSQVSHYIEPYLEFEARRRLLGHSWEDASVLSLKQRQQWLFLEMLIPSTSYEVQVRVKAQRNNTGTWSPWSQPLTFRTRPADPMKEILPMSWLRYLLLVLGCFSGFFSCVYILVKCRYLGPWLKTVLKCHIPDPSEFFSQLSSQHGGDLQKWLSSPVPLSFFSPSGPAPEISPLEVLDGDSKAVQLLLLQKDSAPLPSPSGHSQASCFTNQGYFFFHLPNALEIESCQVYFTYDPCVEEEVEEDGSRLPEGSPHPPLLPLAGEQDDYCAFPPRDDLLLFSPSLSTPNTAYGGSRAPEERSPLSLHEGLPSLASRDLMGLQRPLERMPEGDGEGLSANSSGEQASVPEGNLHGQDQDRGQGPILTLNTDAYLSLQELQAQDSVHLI
T2 sequence (looked up) 3: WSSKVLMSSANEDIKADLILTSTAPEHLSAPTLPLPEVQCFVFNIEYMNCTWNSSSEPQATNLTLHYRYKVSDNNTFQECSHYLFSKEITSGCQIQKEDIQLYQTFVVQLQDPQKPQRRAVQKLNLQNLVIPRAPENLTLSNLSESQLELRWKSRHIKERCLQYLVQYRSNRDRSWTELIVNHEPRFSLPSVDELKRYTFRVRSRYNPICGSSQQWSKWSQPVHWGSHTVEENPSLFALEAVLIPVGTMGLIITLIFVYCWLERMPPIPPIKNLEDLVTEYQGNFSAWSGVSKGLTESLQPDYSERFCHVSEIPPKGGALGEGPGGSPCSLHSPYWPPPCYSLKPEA

T3: IL-2Rα (recombinant IL-2 receptor α, R&D Systems Cat #: 223-2A/CF), biotinylated (human, UniProt P01589 22-213, limits assumed, biotinylated using sulfo-NHS-LC-LC-Biotin)
T3 construct: Bought reagent; also used here as the IL-2Rα partner of the in-silico analysis of PDB 2B5I (another construct); also called IL-2RA; CD25
T3 sequence (looked up): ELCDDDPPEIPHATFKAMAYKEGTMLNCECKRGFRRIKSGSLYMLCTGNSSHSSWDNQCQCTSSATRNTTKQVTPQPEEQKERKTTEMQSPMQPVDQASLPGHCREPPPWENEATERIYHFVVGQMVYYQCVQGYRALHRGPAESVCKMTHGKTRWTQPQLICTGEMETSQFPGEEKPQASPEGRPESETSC

T4: IL-2Rβ (recombinant IL-2 receptor β, R&D Systems Cat #:224-2B-025/CF), biotinylated (UniProt P14784 27-239, limits assumed, biotinylated using sulfo-NHS-LC-LC-Biotin)
T4 construct: Bought reagent; also called IL-2RB; CD122
T4 sequence (looked up): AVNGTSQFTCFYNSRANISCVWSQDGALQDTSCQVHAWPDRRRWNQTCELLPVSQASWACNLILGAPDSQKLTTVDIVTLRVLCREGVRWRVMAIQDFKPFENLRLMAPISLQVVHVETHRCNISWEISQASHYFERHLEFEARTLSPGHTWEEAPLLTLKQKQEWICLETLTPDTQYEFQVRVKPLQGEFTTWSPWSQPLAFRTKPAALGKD

B1: Fc-IL-2v heterodimer 116.46 (hIL-2v_Δ1-5_R38G_E61A_E62A_C125S) (Fc fusion)
chain 1: ESKYGPPCPPCPAPEAAGGPSVFLFPPKPKDTLMISRTPEVTCVVVDVSQEDPEVQFNWYVDGVEVHNAKTKPREEQFNSTYRVVSVLTVLHQDWLNGKEYKCKVSNKGLPSSIEKTISKAKGQPREPQVYTLPPSQEEMTKNQVSLWCLVKGFYPSDIAVEWESNGQPENNYKTTPPVLDSDGSFFLYSRLTVDKSRWQEGNVFSCSVMHEALHNHYTQKSLSLSLGGGGGSGGGGSGGGGSGGGGSSTKKTQLQLEHLLLDLQMILNGINNYKNPKLTGMLTFKFYMPKKATELKHLQCLEAALKPLEEVLNLAQSKNFHLRPRDLISNINVIVLELKGSETTFMCEYADETATIVEFLNRWITFSQSIISTLT
chain 2: ESKYGPPCPPCPAPEAAGGPSVFLFPPKPKDTLMISRTPEVTCVVVDVSQEDPEVQFNWYVDGVEVHNAKTKPREEQFNSTYRVVSVLTVLHQDWLNGKEYKCKVSNKGLPSSIEKTISKAKGQPREPQVYTLPPSQEEMTKNQVSLSCAVKGFYPSDIAVEWESNGQPENNYKTTPPVLDSDGSFFLVSRLTVDKSRWQEGNVFSCSVMHEALHNRFTQKSLSLSLGK
notes: hIgG4 knob-in-hole Fc heterodimer, one IL-2v on the knob chain
B2: Fc-IL-2v heterodimer 110.46 (hIL-2v_Δ1-5_R38G_Y45G_E61A_C125S) (Fc fusion)
chain 1: B1 chain 1 with Y288G, A305E
chain 2: B1 chain 2
notes: as for B1
B3: Fc-IL-2v heterodimer 102.46 (hIL-2v_Δ1-5_Y45G_E61A_E62A_C125S) (Fc fusion)
chain 1: B1 chain 1 with G281R, Y288G
chain 2: B1 chain 2
notes: as for B1
B4: Fc-IL-2v heterodimer 106.46 (hIL-2v_Δ1-5_R38G_F42A_Y45G_C125S) (Fc fusion)
chain 1: B1 chain 1 with F285A, Y288G, A304E, A305E
chain 2: B1 chain 2
notes: as for B1
B5: Fc-IL-2v heterodimer 104.46 (hIL-2v_Δ1-5_R38G_F42A_C125S) (Fc fusion)
chain 1: B1 chain 1 with F285A, A304E, A305E
chain 2: B1 chain 2
notes: as for B1
B6: Fc-IL-2v heterodimer 100.46 (hIL-2v_Δ1-5_F42A_E61A_C125S) (Fc fusion)
chain 1: B1 chain 1 with G281R, F285A, A305E
chain 2: B1 chain 2
notes: as for B1
B7: Fc-IL-2v heterodimer 112.46 (hIL-2v_Δ1-5_R38G_Y45G_E62A_C125S) (Fc fusion)
chain 1: B1 chain 1 with Y288G, A304E
chain 2: B1 chain 2
notes: as for B1
B8: Fc-IL-2v heterodimer 109.46 (hIL-2v_Δ1-5_F42A_Y45G_E61A_C125S) (Fc fusion)
chain 1: B1 chain 1 with G281R, F285A, Y288G, A305E
chain 2: B1 chain 2
notes: as for B1
B9: Fc-IL-2v heterodimer 111.46 (hIL-2v_Δ1-5_R38G_F42A_E61A_C125S) (Fc fusion)
chain 1: B1 chain 1 with F285A, A305E
chain 2: B1 chain 2
notes: as for B1
B10: Fc-IL-2v heterodimer 103.46 (hIL-2v_Δ1-5_E61A_E62A_C125S) (Fc fusion)
chain 1: B1 chain 1 with G281R
chain 2: B1 chain 2
notes: as for B1
B11: Fc-IL-2v heterodimer 115.46 (hIL-2v_Δ1-5_F42A_E61A_E62A_C125S) (Fc fusion)
chain 1: B1 chain 1 with G281R, F285A
chain 2: B1 chain 2
notes: as for B1
B12: Fc-IL-2v heterodimer 97.46 (hIL-2v_Δ1-5_Y45G_E62A_C125S) (Fc fusion)
chain 1: B1 chain 1 with G281R, Y288G, A304E
chain 2: B1 chain 2
notes: as for B1
B13: Fc-IL-2v heterodimer 101.46 (hIL-2v_Δ1-5_F42A_Y45G_C125S) (Fc fusion)
chain 1: B1 chain 1 with G281R, F285A, Y288G, A304E, A305E
chain 2: B1 chain 2
notes: as for B1
B14: Fc-IL-2v heterodimer 82.46 (hIL-2v_Δ1-5_R38A_C125S) (Fc fusion)
chain 1: B1 chain 1 with G281A, A304E, A305E
chain 2: B1 chain 2
notes: as for B1
B15: Fc-IL-2v heterodimer 85.46 (hIL-2v_Δ1-5_F42G_C125S) (Fc fusion)
chain 1: B1 chain 1 with G281R, F285G, A304E, A305E
chain 2: B1 chain 2
notes: as for B1
B16: Fc-IL-2v heterodimer 84.46 (hIL-2v_Δ1-5_T41A_C125S) (Fc fusion)
chain 1: B1 chain 1 with G281R, T284A, A304E, A305E
chain 2: B1 chain 2
notes: as for B1

target: T5, IL-2Rβγ heterodimer, custom biotinylated Fc fusion protein (human IL-2Rβ 27-240-Fc-FLAG / human IL-2Rγ … (human, site-specific biotinylation at the AviTag)); assay: SPR (Biacore), CM4 chip, biotinylated receptor on neutravidin
T5 construct: Extracellular regions fused to IgG1 knob-in-hole Fc subunits with tags; also called IL-2 receptor βγ heterodimer; Fc-IL-2Rβγ
T5 sequence (chain, as listed by the source limits assumed): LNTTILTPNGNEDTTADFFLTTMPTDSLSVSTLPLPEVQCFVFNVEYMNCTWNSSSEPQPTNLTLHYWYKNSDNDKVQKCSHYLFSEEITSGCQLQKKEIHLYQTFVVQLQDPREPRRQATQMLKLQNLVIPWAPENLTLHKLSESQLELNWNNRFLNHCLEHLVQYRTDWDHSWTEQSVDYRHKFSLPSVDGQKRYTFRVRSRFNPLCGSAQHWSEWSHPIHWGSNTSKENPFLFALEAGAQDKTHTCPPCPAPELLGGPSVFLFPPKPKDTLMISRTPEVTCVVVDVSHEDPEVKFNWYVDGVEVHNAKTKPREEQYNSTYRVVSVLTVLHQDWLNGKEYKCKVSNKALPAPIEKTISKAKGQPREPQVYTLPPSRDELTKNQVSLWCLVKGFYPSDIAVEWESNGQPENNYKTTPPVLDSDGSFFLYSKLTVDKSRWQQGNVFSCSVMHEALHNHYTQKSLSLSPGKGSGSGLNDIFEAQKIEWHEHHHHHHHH
Description: Fc-IL-2 variant binding data was collected on a Biacore platform using a CM4 chip. Neutravidin was immobilized using standard amine coupling methods and used to capture biotinylated receptors. The source, preparation and immobilization of biotinylated IL-2Rα and IL-2Rβγ heterodimer was as described in Example 4. Proleukin was used as a comparator. Fc-IL-2 variants and Proleukin were injected at various concentrations over these surfaces. Kinetic data obtained from these injections was used to extract kₒₙ and koff to calculate KD (KD=Koff/kₒₙ).

Row | Kd | Binder
1 | 0.115 nM | B1
2 | 0.059 nM | B2
3 | 0.073 nM | B3
4 | 0.06 nM | B4
5 | 0.061 nM | B5
6 | 0.061 nM | B6
7 | 0.066 nM | B7
8 | 0.056 nM | B8
9 | 0.069 nM | B9
10 | 0.096 nM | B10
11 | 0.093 nM | B11
12 | 0.065 nM | B12
13 | 0.054 nM | B13

target: T1, human IL-2Rα on Treg cells (CD3+, CD4+, …); assay: cell-based or functional assay

Row | Treg EC50, STAT5 activation (PBMC STAT5 assay) | Binder
14 | < 0.001 nM | B14
15 | 0.06 nM | B15
16 | < 0.001 nM | B16

target: T2, trimeric murine IL-2 receptor (IL-2Rα, …); assay: cell-based or functional assay

Row | STAT5 activation of CTLL-2 cells, EC50 | Binder
17 | 16.3 nM | B1
18 | 1.5 nM | B2
19 | 6.1 nM | B3
20 | 19.6 nM | B4
21 | 1.4 nM | B5
22 | 1.6 nM | B6
23 | 13.1 nM | B7
24 | 36.2 nM | B8
25 | 11 nM | B9
26 | 2.7 nM | B10
27 | 67.1 nM | B11
28 | 3.4 nM | B12
29 | 7.7 nM | B13

target: T3, IL-2Rα (recombinant IL-2 receptor α, …); assay: SPR (Biacore), C1 or CM5 chip, biotinylated receptor on neutravidin
Description: (§1) Data for binding of Fc-IL-2 variant fusion proteins to IL-2Rα, IL-2Rβ and IL-2Rβγ heterodimer were collected on a Biacore platform using either C1 or CM5 chips. Neutravidin was immobilized using standard amine coupling methods and used to capture biotinylated receptors. Commercially sourced IL-2Rα (R&D Systems Cat #: 223-2A/CF) and IL-2Rβ receptors (R&D Systems Cat #:224-2B-025/CF) were biotinylated using sulfo-NHS-LC-LC-Biotin, desalted, and then captured on the neutravidin surfaces. […] Distinct purification tags were appended to the C-terminus of each chain. A FLAG epitope tag ([…]; SEQ ID NO: 257) was added at the C-terminus of IL-2Rβ subunit, followed by C-terminal Hiss tag ([…]; SEQ ID NO: 258). An AviTag™ ([…]; SEQ ID NO: 259) motif on the IL-2Rγ subunit allowed for site-specific biotinylation of the heterodimer.
(§2) Fc IL 2 fusion protein variants, Fc protein, and Proleukin were injected at various concentrations over these surfaces. Kinetic data obtained from these injections was used to extract kₒₙ and koff to calculate KD (KD=koff/kₒₙ). Experiments were run at 25° C. in HBS-EP+ running buffer (10 mM HEPES, 150 mM NaCl, 3 mM EDTA, 0.05% Tween20, pH 7.4 with 0.1 mg/ml BSA). Data shown in Table 5 for Fc IL-2 fusion protein variants binding to the indicated IL-2R surfaces were derived from the global fitting of data obtained from 2-5 independent surfaces.

Row | Kd | Binder
30 | 108 nM | B14
31 | 4900 nM | B15
32 | 119 nM | B16

target: T4, IL-2Rβ (recombinant IL-2 receptor β, …); assay: as above
Description: as §1, §2

Row | Kd | Binder
33 | 8200 nM | B14
34 | 7500 nM | B15
35 | 7000 nM | B16

target: T2, trimeric murine IL-2 receptor (IL-2Rα, …); assay: cell-based or functional assay; remark: another data set of the same source

Row | STAT5 activation of CTLL-2 cells, EC50 | Binder
36 | 0.01 nM | B14
37 | 5.5 nM | B15
38 | 0.03 nM | B16
